From the supplement of paper PMC9170038

Test system: MS2 coat protein
Assay: apparent KD of MS2 coat protein; higher = weaker reporter binding
Settings: Eterna round: R107
Procedure, shortened: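 Binding of SNAP-549-labelled MS2 coat protein was measured on designed RNA switches transcribed on-chip from Illumina sequencing clusters. The protein rose in twofold steps from 0.7 or 1.5 nM to 3 µM, with 0.8–1.5 h per step early on and 10–20 min per step later, in 100 mM Tris-HCl pH 7.5, 80 mM KCl, 4 mM MgCl2, without or with constant ligand. Each design's apparent KD is the median of fits to its normalised cluster binding curves.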

[1] = input ligand: theophylline 20 uM
[2] = input ligand: theophylline 2 mM
[3] = input ligand: tryptophan 2.4 mM

| Sequence | apparent KD of MS2 coat protein (input ligand: arginine 13.2 mM) [nM] | apparent KD of MS2 coat protein [1] [nM] | apparent KD of MS2 coat protein [2] [nM] | apparent KD of MS2 coat protein (input ligand: none) [nM] | apparent KD of MS2 coat protein [3] [nM] |
| --- | --- | --- | --- | --- | --- |
| AUAUAUACAUGAGGAUCACCCAUGUUAUUACGAGGACCGGUACGGCCGCCACUCGAUAGAGUAGAAGUAAAUUGUAAUUCAUGUU [JR_ExcTryptoA_Sub016] | 13.8 | 15.6 | 11.6 |  |  |
| GGCCAAAAGGCGGCCGCCACUCAAGAGUAGCAUGGAAAGACAUGAGGAUCACCCAUGUAAAGAAAGAGGACCGGGCCAAAAGGCC | 28.4 | 141 | 262 | 117 | 193 |
| AGUCUUAAUGGAAGGAGCGCAGUCAUAACAUGAGGAUCACCCAUGUCGAUGUGAGGGUCAUUGCAGGUAGGUCGCCAUACUAAGA [Same State - Arginine B (Freestyle 4)] | 24.7 | 25 | 25.3 | 31 | 32.6 |
| GAGCUGAUGUAGAAAUUUUAUUUAUGAGAUACCAGUACAGAAAUGUACCCUUGGCAGCUCAUUUUUACAUGAGGAUCACCCAUGU [Ex Theophylline A 14] | 13.5 | 12.8 |  |  | 13.3 |
| AUUCAUGAAAACAUGACAUGAGGAUCACUCCGAGGACCGGUACGGCCGCCACUCGCGAGGAGGCACAUGAGGAUCACCCAUGUUA [SS Tryp A #2] | 36 | 119 | 143 |  |  |
| UGUCCUCAUGCGGCCGCCACUGUCGGCCGCCACUAAACCUGAGGAUCACCCGGGUAGGACCGGGACAGGACCGGGCAUGGGUGCU [#DoubleAptamer 4 #AlternativeMS2] | 47.4 | 486 | 686 | 315 | 111 |
| GCACGGUAGUCGGCCGCCACUGAAACAUGUGUCUACAUGAGGAUCACCCAUGUGGGUGUGUUUUGUAGGACCGGGACAAGACCCG [#11 Same State - Tryptophan B] | 16.8 | 28.1 | 18 | 19 | 17.2 |
| AAUUCCUAACAUGAGGAUCACCCAUGUGAAGGAGCGCCGAAUAAGGCAGGUAGGUCGCACAUGGAACUGCUACGAAAGUAGAAAA [XArg-A 4 V2mod] | 19.2 | 23.3 | 35.1 | 16.2 | 18.8 |
| UUCACAUGGUAUGAAUAUACAUAUAAGAAACGAGGACCGGUACGGCCGCCACUCGUGCCGGAAACAUGAGGAUCACCCAUGUGUU [AK1.1 Exclusion TrypA mod IceBolt] | 27 | 55.9 | 64.8 |  |  |
| UCGCCCAGAAAGGAUUCCUGGGAUAUGGAAGGAGCGCUGAUGCCAGCAGGUAGGUCGCCAACGGACAUGAGGAUCACCCAUGUAC [Same State - Arginine A (Freestyle 7)] | 15.4 | 25.7 | 21.7 | 17.3 | 18 |
| UAAAACAUGAGGAUCACCCAUGUAAAAGAUACCAGAGUGAUGAUCCUCCCUUGGCAGCUUAACGCUGAUUGAUUACAAUCAGCGA [Mat - Same State Theophlline A - Mod of Eli - D21] | 75.4 | 124 |  |  | 53.3 |
| ACACAUGAGGAUCACCCAUGUAAAGUUGAAGGAGCGAUCAUUAGGUCAGGUAGGUCGCAGCACAUGAGGAUCACCCAUGUCGUGA [DOUBLE!!! :-D #2] | 31.3 | 85.5 | 73.7 | 96.1 | 86.9 |
| GCCUAGCAUCGAAGGAGCGGGCAUUACGCGCGAAAGCGCGAUGCACGAGGAUCACCCGUGUCCCAGGUAGGUCGCGAUGCUAGGC [SSAB Alternative Aptamer #4 V+V2] | 153 | 368 | 527 | 508 | 343 |
| CUAUAUGGAAACAUAUAGAAGCGAAAGCAGCGAGGACCGGUACGGCCGCCACUCGCAGAGUGGUGGACAUGAGGAUCACCCAUGU [Design 2] | 43.8 | 111 | 74.6 | 83.2 | 40 |
| UGACAGAUAACCGCUGGUGCUCUUGAGUUGCGAGGACCGGUACGGCCGCCACUCGACAACAUGAGGAUCACCCAUGUUGCGGGUC [Soleeror] | 38.3 | 89.5 | 146 | 146 | 85.1 |
| AAUGUAAUAGUCGUACUCUUACACUGAGAAGGAGCGCGAAAGUUCGCAGGUAGGUCGCUCAGUUAUACAUGAGGAUCACCCAUGU [Bebemaata] | 24.1 | 28.3 | 27.9 | 24.8 | 24.1 |
| AGCUCAUAGAGUGAUACCAGACUACAUGAGGAUCACCCAUGUUACUUUUAAAUAUCAUUUGUCCCUUGGCAGCACAUGAAGAGCA [JR_Nu_ExcTheophyB_Sub017] | 18.3 | 18.5 |  |  | 13.8 |
| AAUAAUAACUGAAGGAGCGUCUAUAUUACAUGAGGAUCACCCAUGUUUAUAUGGUAUUAUAGACAGGUAGGUCGCAGAUUUUUUA [JR_SSArginiB_Sub016] | 14.5 | 22.1 | 18.6 | 16.6 | 16.3 |
| GCUCACAUGAGGAUCACCCAUGUACGUCCGCGAGGACCGGUACGGCCGCCACUCGUGUUAGCUUCAAACUUGUUAGUGUUAAACA [Atleerge] | 31.3 | 53.4 | 68.4 |  |  |

| Sequence | apparent KD of MS2 coat protein (input ligand: arginine 13.2 mM) [nM] | apparent KD of MS2 coat protein [1] [nM] | apparent KD of MS2 coat protein [2] [nM] | apparent KD of MS2 coat protein (input ligand: none) [nM] | apparent KD of MS2 coat protein [3] [nM] |
| --- | --- | --- | --- | --- | --- |
| ACGAUAGGACUUGAGGAUCACCCAAGUGAUACCAGCCUGGAAACAGGCCCUUGGCAGCACUAAUACUCCAAUAACCUAUCGAAUA [TheoAX 14 #MicroSwitchBubble #AlternativeMS2] | 78.6 | 228 | 387 | 232 | 395 |
| GUAUAUAUGCGAAGGAGCGGGAAAUAUAUAUAUAUAAUCCUAACAUGAGGAUCACCCAUGUCCCAGGUAGGUCGCGCAUAUAUAU [12.B] | 68.7 | 86.9 | 83.6 | 69.6 | 76.1 |
| ACAUGAGGAUCACCCAUGUGGCGUCUUGAUACCAGACGAGAAGUAGUCCCUUGGCAGCAAAUACGUGAGGAUCACACAUGUGCGA [cccmullin3] | 24.4 | 30.9 |  |  | 29 |
| AACCGAGGCUAUCCUCUAAGAAUAUGUGAUACCAGAAUAAUUUUAUUCCCUUGGCAGCAUGACAUGAGGAUCACCCAUGUGUCUU [SSTheo A #7] | 70 | 136 |  |  | 136 |
| AAUGCUGCCAAGGAUUCCUCAUGAGCAGAUACCAGCUAGGAAACUAGCCCUUGGCAGCUGCAACAUGAGGAUCACCCAUGUAAUA [(T)'-(M)'-(T1)-(T2)-(M1)-(M2)_Design7] | 31 | 94.2 |  |  | 35.7 |
| AUUAUCAUGGUCAUUUAUAUUUCGUCAGAUACCAGACUAGAUAUAGUCCCUUGGCAGCUGUUACAUGAGGAUCACCCAUGUUAUU [JR_ExcTheophyA_Sub018] | 44.7 | 70.6 |  |  | 103 |
| CUCCCGUGGUCGGCCGCCACUGGAGGCCUCGCGCGACAUGAGGAUCACCCAUGUUGGCCCGGCUUCAGGACCGGGAUCGCGUGAG [#1 Same State - Tryptophan B Attempt #8 (HarryS)] | 12.2 | 16.2 | 12.6 |  |  |
| UUCGUAUUGUCGGCCGCCACUGCAACAUGAGGAUCACCCAUGUAAAUUUGGGAGUAGUUAUAUUACAGGACCGGGACAAUAGUAA [JR_ExcTryptoB_Sub019] | 51.8 | 113 | 140 |  |  |
| GGGCCCGGCCGAAAGGCCGGGCCCGCUGAAGGAGCGGGAAAUAACCCAGGUAGGUCGCAGAGAUCCACAUGAGGAUCACCCAUGU [#26 Exclusion - Arginine A] | 38.7 | 64.1 | 68.1 | 26.5 | 44.4 |
| CACGCACGAUCGGCCGCCACUCAUGUAGCUUACAUGAGGAUCACCCAUGUAUUUUCUUUCUUUUAGAGGACCGGGAUCGUGCGUG [#03 Same State - Tryptophan B] | 25 | 48.5 | 35 |  |  |
| GGAUAGAUAGGAGAUACCAGAUACAUCAACAUGAGGAUCACCCAUGUGUCUGCACUAAGUGUCCCUUGGCAGCUCGGAGAUCUGA [#16 Same State - Theophylline B] | 24 | 33.7 |  |  | 32.4 |
| CGUAUUACGAAAGUAGUACGUAGUUCGAGUCGAGGACCGGUACGGCCGCCACUCGGACAUGAGGAUCACCCAUGUAGCGAAAGCU [Tryptophan A 23] | 68.2 | 156 | 161 | 125 | 72.4 |
| ACUUUGUCGGGUGAUACCAGCCUCGGCAAAUCUCGUGCCGAACAUGAGGAUCACCCAUGUGGCCCUUGGCAGCACAUGACAACUC [Cezara] | 26.3 | 546 |  |  | 912 |
| UGGACGCAACGAGCACGAGGUCGGCAGCUACGAGGACCGGUACGGCCGCCACUCGAGUUACGACAUGAGGAUCACCCAUGUAAGG [theeternabot_exclusion_MS2_Trp_A_45] | 27.9 | 61.1 | 51.8 |  |  |
| GCGAUGGAGCGAAGGAGCGUGCUGGUACAUGAGGAUCACCCAUGUGAGUCGCAUCGCUAAGCACAGGUAGGUCGCGCUCCAUCGC [EAB NP+V+V2 #10] | 48.6 | 85 | 83 | 58.4 | 66.5 |
| UGUAUGGACUGAAGGAGCGGGUUGAUAAUCUGAGGAUCACCCAGGUAAAAGGCGAAAGCCGCCCAGGUAGGUCGCAGUCCAUACU | 20.5 | 36.1 | 31.5 | 25.3 | 33.4 |
| GGAUUCGGCACGGCCGCCACUGCGGUGGUGUGACAUGAGGAUCACCCAUGUUGUCAUGCGGCCCUUAGGACCGGGUGGCGUUUCC [#1 Exclusion - Tryptophan B Attempt #21 (HarryS)] | 47.1 | 76.2 | 73.3 |  |  |
| ACAUGAGGAUCACCCAUGUACUGGAUCUAACGAGGACCGGUACGGCCGCCACUCGAAGAUAGGACUAUGGAAACAUAGCUUAUCA [Design 1] | 15.3 | 19.9 | 18.4 | 15.3 | 14.6 |
| GCUAGGUCAUCGGCCGCCACUAACGACGGUUCGAACAUGAGGAUCACCCAUGUGCCACAUGCGCAUAGGACCGGGAUGACCUAGC [SSTB NP+V+V2 #6] | 35.7 | 24.3 | 21.2 | 19.5 | 11.7 |
